The record followed here is patent US20100247590A1, “Peptide-Based Systems For Delivery Of Cosmetic Agents” (JOHNSON & JOHNSON, priority 2009, published 2010).

A short description of assay [1]: Peptide-mediated binding of Co-NTA magnetic beads to gray hair, visual rating on magnet. The arrangement: species or system human. Here is the method:
Approximately 5 mg of 5 mm long hair strands (90% gray, human) were transferred to 2-mL microcentrifuge tubes. Approximately 1 mL of TBST0.1 buffer (25 mM Tris, 150 mM NaCl, pH7.2, with 0.1% TWEEN®-20) or the same buffer including varying concentrations of HC263 peptide was added to the hair.
The mixtures were shaken on a Nutator for one hour at room temperature (˜22° C.). The hairs were washed three times with TBST0.5 buffer (25 mM Tris, 150 mM NaCl, pH 7.2, with 0.5% TWEEN®-20). After washing, the hairs were resuspended in 900 μL Talon buffer (50 mM sodium phosphate, pH 8.0, 300 mM sodium chloride, 0.01% TWEEN®-20). A subset of hair/peptide conjugates were washed additionally one time with 1 mL of 0.25% SLES (Sodium Lauryl Ether Sulfate) for 5 min at room temperature on the Nutator, then washed two times with 1 mL TBST0.1 buffer. Approximately 0.2 mg of TALON™ beads (DYNABEADS® TALONT™, Invitrogen, Catalog#101.01D) were washed twice with TALON™ buffer on the DYNAL® MPC™ magnet and added to each reaction in 100 μL TALON™ buffer. The magnetic beads were coated with Co-NTA, which specifically binds to the six histidine residues incorporated into the peptide (C-terminal his tag). The hair and beads were incubated for 10 minutes with gentle shaking before the tubes were placed on the magnet.
Beads binding to the hair were expected to co-migrate on the sides of the tubes once applied to the magnet. The strength of binding was visually assessed and rated on a scale of 0 (little or no observed binding) to 5 (highest amount of observed binding).
The hair binding assay of Example 3 was used to assess the strength of binding of the test peptides in Table 10.

Assay [2] in a line: HC263-mediated binding of magnetic beads to surfaces, SEM score: SONTARA. The settings on record: surface SONTARA, 0.2 μM HC263. The procedure:
(§1) Peptide HC263 (SEQ ID NO: 196) was tested for peptide-mediated binding of magnetic beads to various surfaces: human hair, yak hair, wool, cotton, SONTARA® (a nonwoven, spunlaced textile sheet fabric, E.I. duPont de Nemours and Company, Inc., Wilmington, Del.), and cellulose (filter paper). Approximately 5 mg of human hair (90% gray), yak hair, wool, cotton, SONTARA®, or filter paper were added to 2-mL microcentrifuge tubes. Approximately 1 mL of TBST0.1 buffer (25 mM Tris, 150 mM NaCl, pH 7.2, with 0.1% TWEEN®-20) containing 0.2 μM HC263 was added. The mixtures were shaken on a Nutator (BD Diagnostics, Franklin Lakes, N.J.) for 30 minutes at room temperature (˜22° C.). The samples were washed three times with TBST0.5 buffer (25 mM Tris, 150 mM NaCl, pH 7.2, with 0.5% TWEEN®-20). After washing, the samples were re-suspended in 900 μL TALON™ (Clontech, Mountain View, Calif.) buffer (50 mM sodium phosphate, pH 8.0, 300 mM sodium chloride, 0.01% TWEEN®-20). Approximately 0.2 mg of TALON™ beads (DYNABEADS® TALON™, Invitrogen, Carlsbad, Calif.; Catalog#101.01D) were washed twice with TALON™ buffer on the DYNAL® MPC™ magnet (Invitrogen) and added to each reaction in 100-μL TALON™ buffer.
(§2) The strength of binding of the magnetic beads to the various surfaces was evaluated by visualization of scanning electron microscope (SEM) images taken at 1000-fold magnification.

Assay [3] in a line: HC263-mediated binding of magnetic beads to surfaces, SEM score: wool. Conditions: surface wool, 0.2 μM HC263. The procedure: as §1, §2
Assay [4] is described as follows: HC263-mediated binding of magnetic beads to surfaces, SEM score: cotton. The settings on record: surface cotton, 0.2 μM HC263. The procedure:
as §1, §2

The nature of assay [5]: HC263-mediated binding of magnetic beads to surfaces, SEM score: yak hair. Conditions: surface yak hair, 0.2 μM HC263. The procedure: as §1, §2
A short description of assay [6]: HC263-mediated binding of magnetic beads to surfaces, SEM score: cellulose. The settings on record: surface cellulose (filter paper), 0.2 μM HC263. The procedure:
as §1, §2

B1: MASGSDPS-Hair2Rnd1-GPEPEPEPEPIPEPPKEAPVVIEKPKPKPKPKPKPPA-Gray3Rnd4-GSGGGGSP-HHHHHH (peptide)
chain: MASGSDPSDRSKLYQSLEHRQPPGAHAQGPEPEPEPEPIPEPPKEAPVVIEKPKPKPKPKPKPPAAHDAKHEHRKQNHTQGSGGGGSPHHHHHH
Take B1: the “Strength of binding (5 highest, 0 lowest)” value (shortened to “Strength of binding”) turned out to be 2 in assay [1] (Table 11, peptide 0.002 μM); 5 in assay [1] (Table 11, peptide 0.02 μM); 5 in assay [1] (Table 11, peptide 0.2 μM).

B2: MASGSDPS-Hair2-GPEPEPEPEPIPEPPKEAPVVIEKPKPKPKPKPKPPA-Gray3-GSGGGGSP-HHHHHH (peptide)
chain: MASGSDPSAQSQLPDKHSGLHERAPQRYGPEPEPEPEPIPEPPKEAPVVIEKPKPKPKPKPKPPAHDHKNQKETHQRHAAGSGGGGSPHHHHHH
As for B2, the “Strength of binding” value in assay [2] is 0; in assay [1] (Table 9, peptide 0.002 μM, no SLES wash), 2; in assay [1] (Table 11, peptide 0.002 μM) it was 2; in assay [1] (Table 11, peptide 0.02 μM), 5; in assay [1] (Table 11, peptide 0.2 μM), 5; in assay [3] it was 0. Moreover, the figures for the “Strength of binding” value in assay [4], in assay [5] and in assay [6] were 0, 1 and 0, respectively.
